Experimental data taken from US7291458B2, “Leptin-mediated gene-induction” (Vlaams Interuniversitair Instituut Voor Biotechnologie VZW, priority 1998, dated 2007).

How the values were obtained:
[1] = system: differentiated PC12-LR8 cells; test: RDA and Northern blot of leptin-responsive genes in differentiated PC12-LR8 cells; format: cell-based, rat; conditions: leptin 24 hours, continued presence of b-NGF and forskolin
Description: Adherent PC12-LR8 cells were treated with b-NGF and forskolin for 5 days to induce neuronal differentiation. Differentiated cells were treated with leptin (nF/L) for 24 hours, or were left untreated (nF), in the continued presence of b-NGF and forskolin. Non-differentiated cells were treated for 24 hours with leptin and forskolin (F/L) or with forskolin alone (F). Hybridization was performed with probes as indicated. Mouse b-actin probe was used as a control. Exposure to BioMax film at −80° C. was 3 days for Mx2, 3 hours for peripherin, 4 days for PAP III and 16 hours for b-actin.
The search for leptin-regulated genes was also extended to differentiated PC12 cells (FIG. 5). Adherent PC12-LR8 cells were treated with b-NGF and forskolin for 5 days, which led to a growth arrest, the formation of branched neuritic processes and the accumulation of small vesicles. Again, a RDA experiment was performed using mRNAs from differentiated cells treated with leptin for 24 hours, or from untreated cells, both in the continued presence of b-NGF and forskolin.
For neuronal differentiation, resuspended PC12 were seeded on rat tail collagen (Collaborative Biomedical Products) coated plates at 2-3 10^6 cells/25 cm^2 flask in RMPI 1640 medium with glutamax-I containing 10% heat-inactivated horse serum, 5% iFCS and gentamycin. […]

[2] = system: PC12-LR8 cells; test: Northern blot analysis of gene induction in non-differentiated PC12-LR8 cells; format: cell-based, rat
Description: PC12-LR8 cells were treated with leptin (L), forskolin (F), or a combination of both (F/L) for the indicated length of time. Hybridization with the mouse b-actin probe was used as a control. NI stands for non-induced control cells. Sizes of transcripts are shown on the right. Exposure times to Biomax MS films were 5.5 days for LIP-I and LIP-II, and 1 day for the corresponding b-actin blot, all at −80° C.
FIG. 6A. Induction patterns of Reg I, HIP-I and peripherin after a 12 hours stimulation with forskolin (F), leptin (L), forskolin plus leptin (F/L), hyper-IL-6 (H) or forskolin plus hyper-IL-6 (F/H). Untreated cells were analyzed as a control (NI). Exposure times to BioMax MS films for Reg I, HIP-I and b-actin were 4 days, 5 days and 3 hours, respectively; and in a separate experiment for peripherin and b-actin, 16 hours and 2 days.
FIG. 6B Induction patterns of PAP I, PAP III, MT-II, Fnk, MRF-1, SOCS-3 and STAT-3 after stimulation with leptin (L) or hyper-IL-6 (H), compared to non-treated control cells (NI). In all cases stimulation was for 12 hours, with the exception of PAP III where stimulation was for 24 hours. b-actin hybridization patterns are shown as control. Exposure times to BioMax MS films at −80° C. were 16 hours for PAP I and 1 hour for b-actin; 4 days for PAP III and 1 hour for b-actin; 3 days for MT-II and Fnk, and2 days for b-actin; 3 days for MRF-1, 2.5 days for SOCS-3 and2 days for b-actin; and 16 hours for STAT-3 and 3 hours for b-actin.
FIG. 8A. Northern blot analysis of the immediate early response genes. PC12-LR8 cells were left untreated (NI: non induced), or were treated with forskolin (F), leptin (L) or a combination of both (F/L) for the indicated time points. Exposure times to BioMax MS films for the different transcripts were Fnk: 6 days, MT-II: 5 days, MRF-1: 6 days, SOCS-3: 14 hours, STAT-3: 14 hours, b-actin: 5 hours.
FIG. 8B. Immediate early response gene-set: early kinetics. PC12-LR8 cells were treated with leptin alone (L) or with a combination of leptin and forskolin (F/L) for the indicated length of time. Exposure time to BioMax MS films were: Fnk: 3 days, MT-II: 3 days, MRF-1: 3 days, SOCS-3: 2.5 days, STAT-3: 2.5 days, b-actin: 1 hour.
FIG. 8C. Northern blot analysis of the late target genes. PC12-LR8 cells were left untreated (NI), or were treated with forskolin (F), leptin (L) or a combination of both (F/L) for the indicated length of time. Exposure times to BioMax MS films were: Ann VIII: 6 days, PAP I: 14 hours, Squalene Epoxidase: 5 days, UGT: 5 days, b-actin: 14 hours.
PC12 cells were cultured in RPMI 1640 medium with glutamax-I (GibcoBRL) containing 10% heat-inactivated foetal calf serum (iFCS) and gentamycin (50 μg/ml). The cells were treated with medium alone or supplemented with 100 ng/ml of mouse leptin (R&D Systems), with forskolin (Sigma) at a concentration of 10 μM or with a combination both, unless otherwise indicated.
Total RNA was prepared from PC12 cells using RNeasy™ method (Qiagen). RNA (10 μg) was separated on a 1.5% agarose,6% formaldehyde gel, transferred to a nylon membrane (Zeta-Probe GT Genomic, Bio-Rad), and cross-linked using UV radiation. The filters were hybridized for one hour at 68° C. in ExpressHyb™ solution (Clontech) with [^32P]dCTP-labeled DNA-probes and washed 3 times with 2×SSC, 0.05% SDS at room temperature and twice in 0.1×SSC, 0.1% SDS at 50° C. Autoradiographs were obtained by exposing the blots to BioMax MS film (Kodak) with intensifying screens at −70° C. All Northern blots were normalized by hybridization using a b-actin probe.

B1: leptin: mouse leptin (R&D Systems), ob gene product, used on PC12 cells at 100 ng/ml (protein)
chain: VPIQKVQDDTKTLIKTIVTRINDISHTQSVSAKQRVTGLDFIPGLHPILSLSKMDQTLAVYQQVLTSLPSQNVLQIANDLENLRDLLHLLAFSKSCSLPQTSGLQKPESLDGVLEASLYSTEVVALSRLQGSLQDILQQLDVSPEC
Q: With B1 as the molecule, how does the “regulation of Mx2, Peripherin and PAP III transcripts” value [1] read?
A: The value was “up-regulated”.

Q: What about the “kinetics of synthesis of SOCS-3 mRNA” value ([2]; 2 hours post stimulation) of the same molecule?
A: The value was “rapid decline”.

Q: And the “time of optimal mRNA levels post induction” value ([2]; Annexin VIII, Squalene epoxidase)?
A: The value was “over 96 hours”.

Q: And the “time of induction of immediate early response genes” value ([2]; Fnk, MT-II, MRF-1, STAT-3, SOCS-3, leptin treatment)?
A: Its value is at most 4 h.

Q: And the “time of optimal mRNA levels post induction” value ([2]; PAP I, UGT)?
A: The value was 22 h.

Q: What about the “time of induction of late activated target genes after stimulus” value ([2]; PAP I, UGT, Ann VIII, squalene epoxidase, leptin treatment) of the same molecule?
A: The value was at least 6 h.

Q: And the “induction of HIP-I and Reg transcripts” value ([2]; RDA hyper-IL-6 versus leptin)?
A: Its value is “not induced”.

Q: What about the “time of optimal stimulation post induction” value ([2]; SOCS-3) of the same molecule?
A: Its value is 30 min.

Q: What about the “time of optimal stimulation post induction” value ([2]; STAT-3) of the same molecule?
A: Its value is 480 min.

Q: What about the “induction of PAP I and PAP III transcripts” value ([2]; without forskolin) of the same molecule?
A: Its value is “requires forskolin co-stimulation”.
